The target in assay [1] is T1, nucleophosmin (NPM), purified wild type (UniProt P06748 1-294).
T1 construct: nucleophosmin, wild type, cloned into pRSETA-HisSumo; HisSumo tag removed by Sumo protease; Truncations end at aa294; also called wild-type NPM; purified NPM; source: E. coli BL21(DE3)-pLysS, purified (HisTrap HP, gel filtration)
The assay is described as follows: pull-down; purified NPM (2 mg) immobilised on a 1 ml HiTrap NHS-activated column; 1 mg PinX1 truncation in PBS, 30 min at room temperature; washed with PBS, eluted with PBS with 1.5 M NaCl; SDS-PAGE. The note with it: both partners purified.

Assay [2] concerns the target T2, PIN2/TERF1-interacting telomerase inhibitor 1 (PinX1), purified wild type (UniProt Q96BK5 1-328).
T2 construct: PinX1, wild type, cloned into pGEX-6p-2; GST removed by PreScission protease; PinX1-C ends at aa328; also called purified PinX1; source: E. coli BL21(DE3)-pLysS, purified (Glutathione Sepharose, gel filtration)
T2 sequence (looked up): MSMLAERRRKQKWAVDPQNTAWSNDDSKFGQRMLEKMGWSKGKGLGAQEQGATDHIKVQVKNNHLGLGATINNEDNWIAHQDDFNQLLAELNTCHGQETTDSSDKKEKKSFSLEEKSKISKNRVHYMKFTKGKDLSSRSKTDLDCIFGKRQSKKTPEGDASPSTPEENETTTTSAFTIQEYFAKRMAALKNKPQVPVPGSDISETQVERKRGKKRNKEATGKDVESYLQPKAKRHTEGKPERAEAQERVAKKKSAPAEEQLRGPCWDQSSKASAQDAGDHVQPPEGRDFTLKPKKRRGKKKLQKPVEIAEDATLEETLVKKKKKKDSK
Nature of the assay: pull-down; purified PinX1 (3 mg) immobilised on a 1 ml HiTrap NHS-activated column; 1 mg NPM or NPM variant in PBS, 30 min at room temperature; washed with PBS, eluted with PBS with 1.5 M NaCl; SDS-PAGE. The note with it: both partners purified.

B1: PinX1-C (aa254–328), purified (domain or fragment, UniProt Q96BK5 254-328, looked up)
chain: SAPAEEQLRGPCWDQSSKASAQDAGDHVQPPEGRDFTLKPKKRRGKKKLQKPVEIAEDATLEETLVKKKKKKDSK
notes: PinX1 residues 254-328; source: E. coli BL21(DE3)-pLysS, purified (Glutathione Sepharose, gel filtration)
Regarding B1, the binding result in assay [1] is “binds”.

B2: NPM 1–123 (domain or fragment, UniProt P06748 1-123, looked up)
chain: MEDSMDMDMSPLRPQNYLFGCELKADKDYHFKVDNDENEHQLSLRTVSLGAGAKDELHIVEAEAMNYEGSPIKVTLATLKMSVQPTVSLGGFEITPPVVLRLKCGSGPVHISGQHLVAVEEDA
notes: source: E. coli BL21(DE3)-pLysS, purified (HisTrap HP, gel filtration)
Consider B2, for which the binding result in assay [2] is recorded as “binds”.

These data come from PMC5334639, “Nucleophosmin Interacts with PIN2/TERF1-interacting Telomerase Inhibitor 1 (PinX1) and Attenuates the PinX1 Inhibition on Telomerase Activity” (Scientific Reports, 2017).
